Reference: US5645817, “Granulocyte-binding antibody constructs, their preparation and use” (Behringwerke Aktiengesellschaft, dated 1997)

Target: carcinoembryonic antigen (CEA) (Homo sapiens (Human), UniProt P06731)
Experiment: characterisation according to Example 2 (ELISA on CEA); told in words
Experimental: Supernatants from BHK cells, which had been transfected with the DNA constructs of the second version of the hum 250/183, were tested for their content of humMab and for the specificity of the humMab.
However, the polystyrene plates were coated with 75 μl of CEA at a concentration of 15 μg/ml. Equal volumes of different concentrations (consecutively dilutions 1:2)

- binding result: binds
B1: hum 250/183 (second version of the humanized Mab BW 250/183) (antibody, V domains shown)
VH: QVQLQESGPGLVRPSQTLSLTCTVSGFSDYYMNWVRQPPGRGLEWIGFISNKPNGHTTEYSASVKGRVTMLRDTSKNQFSLRLSSVTAADTAVYYCARDKGIRWYFDVWGQGSLVTVSS
VL: DIQMTQSPSSLSASVGDRVTITCRASSSVSYMHWYQQKPGKAPKPLIYATSNLASGVPSRFSGSGSGTDFTFTISSLQPEDIATYYCQQWSSNPLTFGQGTKVEIKR
